The target in one data set is T1, MAD2L2^WT (E. coli) (human, UniProt Q9UI95 1-211).
T1 construct: MAD2L2 (REV7), human; source: E. coli Rosetta, purified (metal chelating column, PreScission cleavage, SEC); not shown: GST/hexahistidine-MBP fusion-tag, N-terminal, cleaved
Kind of data set: pull-down; 0.25 uM MBP-SHLD3^28-83 pre-adsorbed on amylose beads, eightfold molar excess of MAD2L2 variant, time course at 4 C in buffer B (10 mM HEPES pH 7.5, 0.15 M NaCl, 5% glycerol, 0.5 mM TCEP); Coomassie SDS-PAGE. The note with it: both partners purified.

For the next data set, the target named is T2, MAD2L2^1xMut (E. coli) (human, UniProt Q9UI95 1-211, R124A).
T2 construct: MAD2L2 (REV7), human, with R124A; also called MAD2L2^R124A; source: E. coli Rosetta, purified (metal chelating column, PreScission cleavage, SEC); not shown: GST/hexahistidine-MBP fusion-tag, N-terminal, cleaved
The data set is described as above. The note with it: both partners purified.

In a further data set the target is T3, MAD2L2^3xMut (E. coli) (human, UniProt Q9UI95 1-211, K44A | R124A | A135D).
T3 construct: MAD2L2 (REV7), human, with K44A, R124A and A135D; also called MAD2L2^K44A/R124A/A135D; source: E. coli Rosetta, purified (metal chelating column, PreScission cleavage, SEC); not shown: GST/hexahistidine-MBP fusion-tag, N-terminal, cleaved
The data set is described as above. The conditions noted are these: both partners purified.

Data set [1] deals with the molecule itself. The experiment in a line: SEC; Superdex-200 in buffer C (25 mM Tris pH 8, 0.3 M NaCl, 10% glycerol, 0.5 mM TCEP, 10 mM MgCl2) + 0.1 mM ATP; proteins incubated 2 h on ice with 2 mM ATP before the run; equimolar in Fig. 3f.

T1 sequence (Q9UI95 whole entry, the tested form may be a part): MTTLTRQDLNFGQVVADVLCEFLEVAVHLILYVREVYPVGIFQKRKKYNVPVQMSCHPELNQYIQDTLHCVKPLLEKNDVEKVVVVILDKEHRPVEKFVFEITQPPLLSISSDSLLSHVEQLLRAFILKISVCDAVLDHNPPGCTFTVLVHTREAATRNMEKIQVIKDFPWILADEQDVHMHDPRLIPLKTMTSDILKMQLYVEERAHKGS
T2 sequence (Q9UI95 whole entry R124A, the tested form may be a part): as the sequence (Q9UI95 whole entry, the tested form may be a part) above, with R124A counted along it
T3 sequence (Q9UI95 whole entry K44A/R124A/A135D, the tested form may be a part): as the sequence (Q9UI95 whole entry, the tested form may be a part) above, with K44A, R124A, A135D counted along it

B1: MBP-SHLD3^28-83 (domain or fragment, human, UniProt Q6ZNX1 28-83, looked up)
chain: QDFPTRPLSRFIPWFPYDGSKLPLRPKRSPPVISEEAAEDVKQYLTISEHDAKSHS
notes: SHLD3, human, residues 28-83; contains only the second RBM; also called SHLD3^28-83 peptide; SHLD3-fragment; source: E. coli Rosetta, purified (metal chelating column, SEC); not shown: hexahistidine-MBP, N-terminal, kept
For the molecule B1, the binding result with MAD2L2^WT (E. coli), in the data set with MAD2L2^1xMut (E. coli) and in the data set with MAD2L2^3xMut (E. coli) was “binds” throughout.

B2: His6-EGFP-TRIP13^E253Q (enzyme, human, UniProt Q15645 1-432, looked up)
chain: MDEAVGDLKQALPCVAESPTVHVEVHQRGSSTAKKEDINLSVRKLLNRHNIVFGDYTWTEFDEPFLTRNVQSVSIIDTELKVKDSQPIDLSACTVALHIFQLNEDGPSSENLEEETENIIAANHWVLPAAEFHGLWDSLVYDVEVKSHLLDYVMTTLLFSDKNVNSNLITWNRVVLLHGPPGTGKTSLCKALAQKLTIRLSSRYRYGQLIEINSHSLFSKWFSESGKLVTKMFQKIQDLIDDKDALVFVLIDQVESLTAARNACRAGTEPSDAIRVVNAVLTQIDQIKRHSNVVILTTSNITEKIDVAFVDRADIKQYIGPPSAAAIFKIYLSCLEELMKCQIIYPRQQLLTLRELEMIGFIENNVSKLSLLLNDISRKSEGLSGRVLRKLPFLAHALYVQAPTVTIEGFLQALSLAVDKQFEERKKLAAYI
notes: TRIP13, human, with E253Q; printed mass of GFP-TRIP13 75.5 kDa; source: insect cells (Hi5, baculovirus, biGBac), purified
For B2, the “stoichiometry N” value in data set [1] was found to be 6.

B3: TRIP13^E253Q (48.5 kDa form, Fig. 3f) (enzyme, human, UniProt Q15645 1-432, looked up)
chain: B2 chain
notes: TRIP13, human, with E253Q; printed mass 48.5 kDa (291 kDa for hexamer); The printed mass fits TRIP13 without the EGFP fusion; source: insect cells (Hi5, baculovirus, biGBac), purified
B3: in data set [1], the “stoichiometry N” value stood at 6.

(Values after article PMC8440562, “MAD2L2 dimerization and TRIP13 control shieldin activity in DNA repair” (Nature Communications, 2021).)
